pIC50, pKd: −log10 of the molar value.
How the values were obtained:
HLA-A*26:01 = experiment: IEDB peptide-MHC binding, purified MHC/competitive/radioactivity; filed as Kd, often an IC50 or EC50 that approximates it; ≥ and ≤ were set here for values at or beyond the usual limits of such assays; details: source organism: Dengue virus 3 Martinique/1243/1999
HLA-A*23:01 = experiment: as above
HLA-A*24:02 [1] = experiment: as above; details: source organism: Dengue virus 3 Martinique/1243/1999
HLA-B*15:01 = experiment: as above
HLA-B*40:01 = experiment: as above
HLA-B*45:01 = experiment: as above
HLA-B*18:01 = experiment: as above
HLA-B*44:03 = experiment: as above
HLA-B*40:02 = experiment: as above
HLA-B*44:02 = experiment: as above
HLA-A*11:01 = experiment: IEDB peptide-MHC binding, purified MHC/competitive/fluorescence; ≥ and ≤ were set here for values at or beyond the usual limits of such assays
HLA-A*02:01 = experiment: as above; details: source organism: Vaccinia virus
HLA-A*24:02 [2] = experiment: as above
HLA-A*32:01 = experiment: IEDB peptide-MHC binding, purified MHC/competitive/radioactivity; filed as Kd, often an IC50 or EC50 that approximates it; ≥ and ≤ were set here for values at or beyond the usual limits of such assays; details: source organism: Vaccinia virus WR
HLA-B*07:02 = experiment: as above
HLA-B*51:01 [3] = experiment: as above; details: source organism: Dengue virus 2 16681-PDK53
HLA-B*51:01 [4] = experiment: IEDB peptide-MHC binding, purified MHC/competitive/fluorescence; filed as Kd, often an IC50 or EC50 that approximates it; ≥ and ≤ were set here for values at or beyond the usual limits of such assays; details: source organism: West Nile virus
HLA-A*30:02 = experiment: IEDB peptide-MHC binding, purified MHC/competitive/radioactivity; filed as Kd, often an IC50 or EC50 that approximates it; ≥ and ≤ were set here for values at or beyond the usual limits of such assays
HLA-A*01:01 = experiment: as above
HLA-B*35:01 = experiment: as above
HLA-A*02:06 = experiment: as above; details: source organism: Dengue virus 3 Martinique/1243/1999
HLA-A*03:01 = experiment: IEDB peptide-MHC binding, purified MHC/competitive/fluorescence; filed as Kd, often an IC50 or EC50 that approximates it; ≥ and ≤ were set here for values at or beyond the usual limits of such assays; details: source organism: Pixuna virus
[5] = source organism: Dengue virus 3 Martinique/1243/1999
[6] = source organism: Dengue virus 1 Brazil/97-11/1997
[7] = source organism: Mammarenavirus brazilense
[8] = source organism: Mammarenavirus lassaense
[9] = source organism: Vaccinia virus
[10] = source organism: Vaccinia virus WR
[11] = source organism: Dengue virus 2 Jamaica/1409/1983
[12] = source organism: Zaire ebolavirus
[13] = source organism: SARS coronavirus Tor2
[14] = source organism: Dengue virus 4 Philippines/H241/1956
[15] = source organism: Mammarenavirus juninense
[16] = source organism: Mammarenavirus machupoense
[17] = source organism: Dengue virus 4 Dominica/814669/1981
[18] = source organism: Mammarenavirus guanaritoense

Question: Which results are given for HMIAGVFFTF?
Answer: pKd (HLA-A*26:01): ≤ 4.48; pKd (HLA-A*23:01; [5]): 7.54; pKd (HLA-A*24:02 [1]): 7.00; pKd (HLA-B*15:01; [5]): 8.83

Question: How did the pKd (HLA-B*15:01; [6]) turn out when SQHNYRPGYF was run?
Answer: Its pKd is 8.03.

Question: How did the pKd (HLA-B*40:01; [7]) turn out when PELKKPITW was run?
Answer: Its pKd is no more than 4.12.

Question: And the pKd (HLA-B*45:01; [7])?
Answer: Its pKd is no more than 4.11.

Question: And the pKd (HLA-B*18:01; [7])?
Answer: Its pKd is no more than 4.11.

Question: What about the pKd (HLA-B*44:03; [7]) of the same sequence?
Answer: The pKd was 4.85.

Question: What about the pKd (HLA-B*40:02; [7]) of the same sequence?
Answer: The pKd was no more than 4.43.

Question: What about the pKd (HLA-B*44:02; [7]) of the same sequence?
Answer: The pKd was no more than 4.37.

Question: With SESDLEFSW as the sequence, how does the pKd (HLA-B*40:01; [8]) read?
Answer: Its pKd is 4.83.

Question: What about the pKd (HLA-B*45:01; [8]) of the same sequence?
Answer: The pKd was 5.78.

Question: What about the pKd (HLA-B*18:01; [8]) of the same sequence?
Answer: The pKd was 6.56.

Question: And the pKd (HLA-B*44:03; [8])?
Answer: The pKd was 8.13.

Question: And the pKd (HLA-B*40:02; [8])?
Answer: Its pKd is 6.38.

Question: What about the pKd (HLA-B*44:02; [8]) of the same sequence?
Answer: Its pKd is 8.04.

Question: SQKTTWLPVL was tested. Which pKd (HLA-B*15:01; [6]) did it give?
Answer: Its pKd is 7.04.

Question: With VSYNDYFNV as the sequence, how does the pIC50 (HLA-A*11:01; [9]) read?
Answer: The pIC50 was 4.84.

Question: What about the pIC50 (HLA-A*02:01) of the same sequence?
Answer: Its pIC50 is 6.13.

Question: And the pIC50 (HLA-A*24:02 [2]; [9])?
Answer: The pIC50 was no more than 4.11.

Question: Which results are given for LLYTANFTF?
Answer: pKd (HLA-A*32:01): 8.17; pKd (HLA-B*15:01; [10]): 8.61

Question: How did the pIC50 (HLA-A*11:01; [10]) turn out when ANGSLFTEQ was run?
Answer: The pIC50 was no more than 3.98.

Question: With QPENLEYTIV as the sequence, how does the pKd (HLA-B*07:02; source organism: Dengue virus 2 16681-PDK53) read?
Answer: Its pKd is 5.34.

Question: What about the pKd (HLA-B*51:01 [3]) of the same sequence?
Answer: Its pKd is no more than 4.16.

Question: RPGYHTQTAG was tested. Which pKd (HLA-B*07:02; [11]) did it give?
Answer: The pKd was 8.68.

Question: With EYPPWLTEK as the sequence, how does the pIC50 (HLA-A*11:01; [12]) read?
Answer: The pIC50 was no more than 3.91.

Question: What about the pIC50 (HLA-A*24:02 [2]; [12]) of the same sequence?
Answer: Its pIC50 is 5.02.

Question: Which results are given for TENLVIEGPT?
Answer: pKd (HLA-B*40:01; [13]): ≤ 4.37; pKd (HLA-B*45:01; [13]): 5.74; pKd (HLA-B*18:01; [13]): ≤ 4.25; pKd (HLA-B*44:03; [13]): ≤ 4.54; pKd (HLA-B*40:02; [13]): 6.14; pKd (HLA-B*44:02; [13]): 4.85

Question: How did the pKd (HLA-B*51:01 [4]) turn out when RPAVGGKTV was run?
Answer: Its pKd is no more than 4.70.

Question: With SMANIFRGSY as the sequence, how does the pKd (HLA-A*30:02; [11]) read?
Answer: The pKd was 8.05.

Question: What about the pKd (HLA-B*15:01; [11]) of the same sequence?
Answer: Its pKd is 9.57.

Question: And the pKd (HLA-A*01:01; [11])?
Answer: Its pKd is 5.49.

Question: WLSLLVPFV was tested. Which pKd (HLA-B*07:02; source organism: Hepatitis B virus) did it give?
Answer: The pKd was no more than 4.46.

Question: Which results are given for VLMMLVAPSY?
Answer: pKd (HLA-A*30:02; [14]): 7.58; pKd (HLA-B*15:01; [14]): 8.00; pKd (HLA-A*01:01; [14]): 6.00

Question: REVLSDREL was tested. Which pKd (HLA-B*40:01; [13]) did it give?
Answer: Its pKd is 7.81.

Question: What about the pKd (HLA-B*45:01; [13]) of the same sequence?
Answer: The pKd was 5.86.

Question: What about the pKd (HLA-B*18:01; [13]) of the same sequence?
Answer: The pKd was 5.13.

Question: What about the pKd (HLA-B*44:03; [13]) of the same sequence?
Answer: Its pKd is 5.95.

Question: What about the pKd (HLA-B*40:02; [13]) of the same sequence?
Answer: Its pKd is 6.99.

Question: What about the pKd (HLA-B*44:02; [13]) of the same sequence?
Answer: Its pKd is 5.91.

Question: Which results are given for GEPKTVKVL?
Answer: pKd (HLA-B*40:01; [8]): 4.73; pKd (HLA-B*45:01; [8]): ≤ 4.11; pKd (HLA-B*18:01; [8]): ≤ 4.11; pKd (HLA-B*44:03; [8]): ≤ 4.11; pKd (HLA-B*40:02; [8]): 6.25; pKd (HLA-B*44:02; [8]): ≤ 4.11

Question: PNRSTKGGQ was tested. Which pIC50 (HLA-A*11:01; [12]) did it give?
Answer: The pIC50 was 4.33.

Question: How did the pKd (HLA-B*40:01; [13]) turn out when QELYSPLFL was run?
Answer: Its pKd is 6.99.

Question: What about the pKd (HLA-B*45:01; [13]) of the same sequence?
Answer: Its pKd is 5.66.

Question: What about the pKd (HLA-B*18:01; [13]) of the same sequence?
Answer: The pKd was 5.25.

Question: What about the pKd (HLA-B*44:03; [13]) of the same sequence?
Answer: The pKd was 6.65.

Question: And the pKd (HLA-B*40:02; [13])?
Answer: Its pKd is 6.81.

Question: What about the pKd (HLA-B*44:02; [13]) of the same sequence?
Answer: The pKd was 6.69.

Question: What does the source list for HDLPLLCNL?
Answer: pKd (HLA-B*40:01; [15]): ≤ 4.42; pKd (HLA-B*45:01; [15]): ≤ 4.11; pKd (HLA-B*18:01; [15]): 4.91; pKd (HLA-B*44:03; [15]): 5.39; pKd (HLA-B*40:02; [15]): 7.82; pKd (HLA-B*44:02; [15]): 5.83

Question: MVHQIFGSAY was tested. Which pKd (HLA-A*26:01) did it give?
Answer: Its pKd is 7.94.

Question: What about the pKd (HLA-B*35:01; [5]) of the same sequence?
Answer: The pKd was 7.74.

Question: And the pKd (HLA-A*30:02; [5])?
Answer: Its pKd is no more than 4.21.

Question: What about the pKd (HLA-B*15:01; [5]) of the same sequence?
Answer: Its pKd is 7.43.

Question: Which results are given for AQMWSLMYF?
Answer: pKd (HLA-A*02:06): 7.89; pKd (HLA-B*15:01; [5]): 9.48

Question: What does the source list for DELGNILSTY?
Answer: pKd (HLA-B*40:01; [16]): ≤ 4.16; pKd (HLA-B*45:01; [16]): ≤ 4.15; pKd (HLA-B*18:01; [16]): 8.06; pKd (HLA-B*44:03; [16]): 6.44; pKd (HLA-B*40:02; [16]): 5.27; pKd (HLA-B*44:02; [16]): 5.73

Question: With SELAKGVAL as the sequence, how does the pKd (HLA-B*40:01; [13]) read?
Answer: The pKd was 8.47.

Question: And the pKd (HLA-B*45:01; [13])?
Answer: The pKd was 6.40.

Question: What about the pKd (HLA-B*18:01; [13]) of the same sequence?
Answer: The pKd was 5.95.

Question: And the pKd (HLA-B*44:03; [13])?
Answer: Its pKd is 6.76.

Question: What about the pKd (HLA-B*40:02; [13]) of the same sequence?
Answer: Its pKd is 7.85.

Question: What about the pKd (HLA-B*44:02; [13]) of the same sequence?
Answer: Its pKd is 6.88.

Question: RVYAHDAQH was tested. Which pKd (HLA-A*03:01) did it give?
Answer: The pKd was 7.52.

Question: With CLIPTVMAF as the sequence, how does the pKd (HLA-A*23:01; [17]) read?
Answer: The pKd was 7.09.

Question: What about the pKd (HLA-B*15:01; [17]) of the same sequence?
Answer: The pKd was 9.19.

Question: How did the pKd (HLA-A*23:01; [14]) turn out when CLIPTAMAF was run?
Answer: The pKd was 6.35.

Question: What about the pKd (HLA-B*15:01; [14]) of the same sequence?
Answer: The pKd was 8.03.

Question: How did the pKd (HLA-B*15:01; [10]) turn out when VNIKYNPHI was run?
Answer: Its pKd is 6.85.

Question: With SEDGLDGFDW as the sequence, how does the pKd (HLA-B*40:01; [18]) read?
Answer: The pKd was 4.84.

Question: And the pKd (HLA-B*45:01; [18])?
Answer: The pKd was no more than 4.25.

Question: And the pKd (HLA-B*18:01; [18])?
Answer: Its pKd is no more than 4.45.

Question: What about the pKd (HLA-B*44:03; [18]) of the same sequence?
Answer: The pKd was 7.67.

Question: What about the pKd (HLA-B*40:02; [18]) of the same sequence?
Answer: Its pKd is 4.84.

Question: What about the pKd (HLA-B*44:02; [18]) of the same sequence?
Answer: Its pKd is 7.67.

Question: How did the pKd (HLA-B*07:02; [11]) turn out when TPPGSRDPF was run?
Answer: Its pKd is 5.01.

Question: And the pKd (HLA-B*35:01; [11])?
Answer: The pKd was 6.80.

Source: the Immune Epitope Database (IEDB)
